According to patent publication US9328139B2, “Cyclin based inhibitors of CDK2 and CDK4” (University of South Carolina, priority 2010, dated 2016):
Read-outs that look alike come from different tables or passages of the source.

How the values were obtained:
[1] = test system: retinoblastoma (Rb)-positive tumor cells; settings: cited from earlier work
[2] = target: T1, CDK4/Cyclin D1 (Homo sapiens, UniProt P24385); assay: CDK4/Cyclin D1 in vitro kinase assay (32P filter capture, GST-Rb substrate); format: biochemical
T1 construct: performed using full-length recombinant CDK2/cyclin A2 and CDK4/Cyclin D1; GST (N); purchased SignalChem, Richmond, Canada; host or cells: Sf9 insect cells (baculovirus)
T1 sequence (P24385 whole entry): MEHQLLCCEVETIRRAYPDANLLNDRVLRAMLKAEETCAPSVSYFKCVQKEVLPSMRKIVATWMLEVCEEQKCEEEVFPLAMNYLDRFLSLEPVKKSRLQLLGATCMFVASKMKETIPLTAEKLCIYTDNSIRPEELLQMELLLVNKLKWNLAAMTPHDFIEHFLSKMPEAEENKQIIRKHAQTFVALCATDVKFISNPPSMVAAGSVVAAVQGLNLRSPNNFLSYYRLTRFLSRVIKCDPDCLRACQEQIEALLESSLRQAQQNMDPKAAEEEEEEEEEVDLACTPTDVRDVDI
T1 sequence (P11802 whole entry partner): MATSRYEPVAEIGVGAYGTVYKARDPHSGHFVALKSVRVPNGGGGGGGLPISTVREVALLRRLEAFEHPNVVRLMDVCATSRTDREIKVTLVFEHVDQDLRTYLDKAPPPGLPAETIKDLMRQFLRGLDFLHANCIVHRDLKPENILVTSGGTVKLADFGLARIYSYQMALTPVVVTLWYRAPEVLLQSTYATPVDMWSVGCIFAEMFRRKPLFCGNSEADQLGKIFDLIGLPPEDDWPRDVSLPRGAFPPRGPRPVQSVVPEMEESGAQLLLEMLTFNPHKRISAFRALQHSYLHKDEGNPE
Experimental: CDK2/Cyclin A2 and CDK4/Cyclin D1 kinase assays were performed using full-length recombinant CDK2/cyclin A2 and CDK4/Cyclin D1 co-expressed by baculovirus in Sf9 insect cells using an N-terminal GST tag on both proteins. […] The [^32P]-ATP Assay cocktail was prepared in a designated radioactive working area by adding 150 ul of 10 mM ATP stock solution, 100 ul[^32P]-ATP (1 mCi/100 ul), 5.75 ml of kinase assay buffer I. 10 mM ATP Stock Solution was prepared by dissolving 55 mg of ATP in 10 ml of kinase assay buffer I. Store 200 μl aliquots at −20° C. […] The reaction was initiated by the addition of 5 μl [^32P]-ATP assay cocktail bringing the final volume up to 25 μl and incubating the mixture in a water bath at 30° C. for 15 minutes. After the incubation period, the reaction was terminated by spotting 20 μl of the reaction mixture onto individual pre-cut strips of phophocellulose P81 paper. The pre-cut P81 strip was air-dried and sequentially washed in a 1% phosphoric acid solution with constant gentle stirring. Radioactivity on the P81 paper was counted in the presence of scintillation fluid on a scintillation counter. […]
Activities of peptides previously tested against CDK2A and CDK4D were determined using this assay format.

Row | activity in the CDK4/cyclin D1 kinase assay (in words) [2] | activity in the CDK4/cyclin D1 kinase assay (in words) ([2]; listed as p21 X8 derivative) | Compound | cell cycle effect [1]
1 |  |  | CC(=O)c1c(C)c2cnc(Nc3ccc(N4CCNCC4)cn3)nc2n(C2CCCC2)c1=O [PD0332991] | G1 arrest
2 | no observable activity | loses all activity | HAKRRLIX8: HAKRRLIX with X8 = 4-pyridylalanine, SEQ ID NO: 24 | 
